Results as given in article PMC2675061.

Experiments:
[1] = target: PTP-SL 147-549 (C480S); experiment: ITC; ERK2 (75-100 µM) injected into PTP-SL (8-10 µM) in the cell, 30 °C; single-site binding model
[2] = target: PTP-SL full cytoplasmic region (aa147-549); experiment: SEC; Superdex 200 HR 10/30 analytical column; 10 mM Hepes, 150 mM NaCl, 0.1 mM EDTA, 5 mM DTT, pH 7.5, no SDS; 100 µl sample, 0.5 ml/min; apparent MW against Bio-Rad gel filtration standard

Ka [1] | Kd [1] | dH [1] | stoichiometry N [1] | stoichiometry N [2] | Substance
6.6e+06 M⁻¹ | 150 nM | -21 kcal/mol | 1.06 |  | ERK2 (from UniProt P63086 1-358) (enzyme)
 |  |  |  | 2 | PTP-SL full cytoplasmic region (aa147-549) (domain or fragment)
